Data taken from article PMC11444341 (The journal of physical chemistry. B, 2015).
Read-outs that look alike come from different tables or passages of the source. Where no end group is shown, it is not given here.

Experiments:
[1] = Pyrene fluorescence II/IIII ratio assay for micelle-like oligomer formation; assay type: physicochemical; conditions: pH 7.3, 20 mM phosphate buffer, 50 mM NaCl, 1 μM pyrene, 25 °C
[2] = cited from earlier work
[3] = 4 °C, 100 mM DCl (pH 1); cited from earlier work
[4] = system: calcitonin oligomer; conditions: cited from earlier work

hIAPP1–19: N-terminal 1–19 fragment of hIAPP, significantly less amyloidogenic than the full-length peptide (KCNTATCATQRLANFLVHS; ends and bridges not checked; cysteine pairing not given here; UniProt P10997 34-52, looked up, fragment)
micelle-like oligomer formation over the concentration range tested (pyrene II/IIII) [1]: did not form oligomers

Aβ1–40: amyloid-beta peptide 1–40, linked to Alzheimer's disease
critical concentration ([2]; 10 mM phosphate buffer, pH 7.3): 8 µM
critical concentration ([2]; 0.1 M Tris, pH 7.4 20 °C): 25 µM
critical concentration for micelle-like oligomers ([2]; pyrene and surface tension studies): 17 µM
length of spherocylindrical micelle structures (SANS) [3]: 11 nm
radius of spherocylindrical micelle structures (SANS) [3]: 2.4 nm

O=C(O[C@@H]1Cc2c(O)cc(O)cc2O[C@@H]1c1cc(O)c(O)c(O)c1)c1cc(O)c(O)c(O)c1 [EGCG]
effect on formation of the calcitonin oligomer [4]: completely abolish
